# Reference: the supplement of paper PMC10724198
# ± gives the standard deviation of the averaged measurements.
# How the values were obtained:
# Saccharomyces cerevisiae [1] = experiment: protein stability index of tFT-peptide fusion in wild type (PSI (0-1 scale)); higher = more stable (slower turnover); conditions: genetic background: wild type
# Method: (§1)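 MPS profiling in S. cerevisiae of two library types built from selected 12-aa C-degron peptides (IN1, IN2, LN1, LN3, VN2, R1-R5, W1-W3, Atg1 and Rpa12 C-termini): saturation mutagenesis libraries and C-terminal +1 capping libraries (13 aa). Each peptide is fused to the C-terminus of a sfGFP-mCherry timer, after a GGGS linker. Cells are FACS-sorted into 8 mCherry/sfGFP bins and sequenced. PSI runs from 0 (unstable) to 1 (stable), measured once in wild type and in the das1Δ or doa10Δ background.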
# Saccharomyces cerevisiae [2] = experiment: protein stability index of tFT-peptide fusion in deletion strain of DAS1 (PSI (0-1 scale)); higher = more stable (slower turnover)
# Method: as §1
# Saccharomyces cerevisiae [3] = experiment: protein stability index of tFT-peptide fusion (C-terminal peptide) (PSI (0-1 scale)); higher = more stable (slower turnover); conditions: temperature: 30 C
# Method: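 MPS profiling in S. cerevisiae of the yeast C-terminome library: the last 12 aa of each annotated ORF are fused to the C-terminus of a sfGFP-mCherry timer, after a GGGS linker. Cells are FACS-sorted into 8 mCherry/sfGFP bins and deep-sequenced. PSI runs from 0 (unstable) to 1 (stable); wild type and das1Δ backgrounds, two technical replicates each.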
# [4] = genetic background: das1 deletion
# 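Throughout, for protein stability index of tFT-peptide fusion in deletion strain of DAS1: PSI is a weighted mean of each variant's read distribution over the sorted stability bins, computed only for variants having over 10 reads in total.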
# 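Throughout, for protein stability index of tFT-peptide fusion in wild type: PSI derived as read-weighted mean over the 8 sorting bins, only variants exceeding 10 total reads kept, mCherry placed adjacent to the peptide and sfGFP distal.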
Sequence,protein stability index (Saccharomyces cerevisiae [1]),protein stability index (Saccharomyces cerevisiae [2]),protein stability index (Saccharomyces cerevisiae [3]; [4]),protein stability index (Saccharomyces cerevisiae [3]; genetic background: wild type)
LKILRQKMNHWN,0.216,0.666,,
LKILRQKLNHQN,0.187,0.676,,
MRWRVGLWRGAS,0.143,0.727,,
LKILRQKMWHQN,0.238,0.657,,
PSVAASFWRVVG,0.142,0.679,,
QTSCGYKFRTNN,0.206,0.673,,
RLIQGLPVQFLN,0.0788,0.651,,
CMSCGYKFRTNN,0.228,0.71,,
CTSCGYKFRTNNH,0.687,0.706,,
RLIQPDPVQFLN,0.216,0.565,,
RLIQPLPVQFTN,0.377,0.723,,
PSIAASFWRVVG,0.143,0.695,,
KKGKKGQKQKIN,0.11,0.592,,
VRGAVGGWILVG,0.25,0.638,,
CTSCGYKFRTNY,0.611,0.742,,
PVKRNHLIKLLN,0.129,0.608,,
PDKSNHLIKLLN,0.157,0.652,,
ARWRVGYWRGAS,0.478,0.691,,
SKHKKGQKQKIN,0.153,0.625,,
CTNCGYKFRTNN,0.216,0.696,,
FSMRWIFRYWVN,0.163,0.535,,
ARWRVSLWRGAS,0.268,0.687,,
PNLAASFWRVVG,0.144,0.694,,
LVVYLYCVACIN,0.0123,0.0269,,
PSLAASFWRVVD,0.48,0.698,,
KKHKTGQKQKIN,0.0826,0.628,,

Sequence,protein stability index (Saccharomyces cerevisiae [1]),protein stability index (Saccharomyces cerevisiae [2]),protein stability index (Saccharomyces cerevisiae [3]; [4]),protein stability index (Saccharomyces cerevisiae [3]; genetic background: wild type)
PSLAASWWRVVG,0.179,0.693,,
KKHKKLQKQKIN,0.054,0.602,,
RLIQPLPVQFHN,0.24,0.616,,
PIKRNHLIKLLN,0.157,0.622,,
KKHKKGQKQYIN,0.24,0.678,,
PDKCNHLIKLLN,0.209,0.586,,
FTMRWTFRYWVN,0.0324,0.428,,
PDKRNHAIKLLN,0.186,0.603,,
LVKYLSCVACIN,0.09,0.365,,
PSLGASFWRVVG,0.207,0.696,,
FSERWTFRYWVN,0.122,0.604,,
PSLAKSFWRVVG,0.375,0.702,,
CTSCGYKFRTNF,0.417,0.712,,
KYHKKGQKQKIN,0.0981,0.595,,
PSLAASFPRVVG,0.659,0.66,,
VRGAVGGWRLSG,0.403,0.67,,
ARTRVGLWRGAS,0.598,0.66,,
FSMRWTFRPWVN,0.245,0.6,,
FSMRPTFRYWVN,0.12,0.562,,
PRGAVGGWRLVG,0.169,0.671,,
KKHKKNQKQKIN,0.217,0.585,,
PSLAVSFWRVVG,0.137,0.673,,
KKHKKGQKQKLN,0.133,0.602,,
FSMRWHFRYWVN,0.0543,0.756,,
VRGAVGLWRLVG,0.164,0.675,,
KKHKKGQKQVIN,0.579,0.629,,

Sequence,protein stability index (Saccharomyces cerevisiae [1]),protein stability index (Saccharomyces cerevisiae [2]),protein stability index (Saccharomyces cerevisiae [3]; [4]),protein stability index (Saccharomyces cerevisiae [3]; genetic background: wild type)
LKILRQKMNHQF,0.255,0.678,,
GVVYLSCVACIN,0.0144,0.0346,,
PSLAASFWVVVG,0.249,0.554,,
CTSCGLKFRTNN,0.34,0.691,,
CTSCGYKFRTNNK,0.669,0.682,,
PRLAASFWRVVG,0.197,0.691,,
RFIQPLPVQFLN,0.0529,0.54,,
FSMRWTFRYWCN,0.081,0.516,,
LVVYLSCVACIT,0.0143,0.0345,,
FSMRWTFRYWVNG,0.431,0.537,,
KKHKKGQKQKIV,0.136,0.596,,
FSMRWTFRYWVNM,0.113,0.543,,
KRGAVGGWRLVG,0.165,0.648,,
LVVYLSCVACDN,0.249,0.272,,
LVVYLSCVAQIN,0.014,0.0252,,
CTSCGVKFRTNN,0.486,0.692,,
LKIWRQKMNHQN,0.176,0.687,,
LKILRKKMNHQN,0.224,0.662,,
PDKRNHLIKLLY,0.328,0.587,,
CESCGYKFRTNN,0.327,0.681,,
VRGAVGGWRLVL,0.572,0.68,,
FSMRWTFRVWVN,0.035,0.271,,
RLIQPLPVQFLF,0.247,0.779,,
PSLAAIFWRVVG,0.138,0.645,,
RLIQPLPVQFLL,0.2,0.586,,
KKHKKGQKCKIN,0.153,0.59,,

Sequence,protein stability index (Saccharomyces cerevisiae [1]),protein stability index (Saccharomyces cerevisiae [2]),protein stability index (Saccharomyces cerevisiae [3]; [4]),protein stability index (Saccharomyces cerevisiae [3]; genetic background: wild type)
MKILRQKMNHQN,0.163,0.66,,
LVSYLSCVACIN,0.0799,0.252,,
ARWRVGLLRGAS,0.652,0.669,,
HKHKKGQKQKIN,0.114,0.604,,
RLIQPLPVQFYN,0.0309,0.783,,
PKYKEEESRSAV [RSN1 C-terminal 12 aa],,,0.678 ± 0.035,0.668 ± 0.019
KKQKVVPLPTDI [SMM1 C-terminal 12 aa],,,0.6919 ± 0.0007,0.654 ± 0.015
MVGVLFFWVWIT [BET1 C-terminal 12 aa],,,0.201 ± 0.0064,0.123 ± 0.018
TAYFICGMVIQL [YDL041W C-terminal 12 aa],,,0.349 ± 0.014,0.34 ± 0.011
VWSLYSRTALET [OAR1 C-terminal 12 aa],,,0.6176 ± 0.004,0.608 ± 0.012
ERDNWWVVAQKR [TRM9 C-terminal 12 aa],,,0.744 ± 0.023,0.723 ± 0.012
KKSKPRANKLTI [ECM2 C-terminal 12 aa],,,0.713 ± 0.02,0.696 ± 0.017
NKYMNEMLEYMQ [NUF2 C-terminal 12 aa],,,0.715 ± 0.0072,0.719 ± 0.085
FANKSSSGGDEV [YIL089W C-terminal 12 aa],,,0.6849 ± 0.0047,0.672 ± 0.028
LNKEALKHNMLK [HSH49 C-terminal 12 aa],,,0.691 ± 0.048,0.695 ± 0.092
SVTAGYLPDLWR [YCH1 C-terminal 12 aa],,,0.73 ± 0.0093,0.728 ± 0.036
LVVARDMLLASL [SPC25 C-terminal 12 aa],,,0.6474 ± 0.0048,0.624 ± 0.024
EKAERRKLSQGR [QRI5 C-terminal 12 aa],,,0.686 ± 0.02,0.6807 ± 0.002
ATAKEWTKKYAV [UBC5 C-terminal 12 aa],,,0.7 ± 0.018,0.729 ± 0.045
ATSITSLGVKRA [AUR1 C-terminal 12 aa],,,0.702 ± 0.01,0.688 ± 0.026
VDDYVAAGFQTL [SUT2 C-terminal 12 aa],,,0.7372 ± 0.0021,0.714 ± 0.018
YLKRCCYHPMQN [YIL020C-A C-terminal 12 aa],,,0.72572 ± 0.00065,0.679 ± 0.035
PTIVGGLYYQRP [AAR2 C-terminal 12 aa],,,0.7 ± 0.0021,0.696 ± 0.012
SIDELETEISTW [BCP1 C-terminal 12 aa],,,0.718 ± 0.015,0.6932 ± 0.0068
ASVRIFLYPSNI [RPL33A C-terminal 12 aa],,,0.7 ± 0.013,0.697 ± 0.017
